Measured values reported in PMC8486322 (Cell, 2019).

Target: eRF3 fused with maltose binding protein (MBP-eRF3) ( (the printed NM_002094.3 is …, UniProt P15170-3 1-637))
Assay: pull-down

- binding result: binds
B1: SFL fused with glutathione S-transferase (GST-SFL) (natural protein)
chain: not shown
